Read-outs that look alike come from different tables or passages of the source.
B1: purified hCypD protein (human Cyclophilin D) (enzyme)
chain: not shown
B2: glutathione S-transferase (GST)-tagged OSCP (human oligomycin sensitivity conferring protein) (natural protein, UniProt P48047 24-213, looked up)
chain: FAKLVRPPVQVYGIEGRYATALYSAASKQNKLEQVEKELLRVAQILKEPKVAASVLNPYVKRSIKVKSLNDITAKERFSPLTTNLINLLAENGRLSNTQGVVSAFSTMMSVHRGEVPCTVTSASPLEEATLSELKTVLKSFLSQGQVLKLEAKTDPSILGGMIVRIGEKYVDMSVKTKIQKLGRAMREIV

Key:
Assay in all cases: pull-down
[1] = molecular target: B2
[2] = molecular target: B2; remark: listed apart in the source
Aβ peptide (ApexBio) [3] = molecular target: Aβ peptide (ApexBio)
Aβ peptide (ApexBio) [4] = molecular target: Aβ peptide (ApexBio); remark: listed apart in the source

## B1
[1]
  Kd: 60 ± 1 nM
[2]
  Kd: 100 ± 15 nM

## B2
Aβ peptide (ApexBio) [3]
  Kd: 510 ± 71 nM
Aβ peptide (ApexBio) [4]
  Kd: 88 ± 43 nM

— article PMC6250052 (Neurobiology of disease, 2018)
